# Reference: US20200317779A1
# What was measured:
# [1] = target: recombinant cynomolgus monkey CD3ε/δ heterodimer (cynomolgus monkey) (UniProt Q95LI5); assay: ELISA, coated CD3ε/δ
# [2] = target: recombinant human CD3ε/δ heterodimer (human) (UniProt P07766); assay: ELISA, coated CD3ε/δ
# Sequence of recombinant human CD3ε/δ heterodimer (human) (P07766 23-126, stated change not applied, chain 1 of 2): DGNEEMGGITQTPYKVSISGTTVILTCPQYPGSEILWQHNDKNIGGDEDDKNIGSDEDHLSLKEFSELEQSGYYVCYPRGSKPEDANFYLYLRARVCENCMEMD
# Sequence of recombinant human CD3ε/δ heterodimer (human) (P04234 22-105, stated change not applied, chain 2 of 2, further chain): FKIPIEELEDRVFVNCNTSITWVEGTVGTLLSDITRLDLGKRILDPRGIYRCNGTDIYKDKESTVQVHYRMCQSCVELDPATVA
# Sequence of recombinant cynomolgus monkey CD3ε/δ heterodimer (cynomolgus monkey) (Q95LI5 22-117, stated change not applied, chain 1 of 2): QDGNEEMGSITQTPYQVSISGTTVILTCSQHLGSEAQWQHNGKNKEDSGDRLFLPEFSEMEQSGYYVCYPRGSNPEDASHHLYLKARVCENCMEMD
# Sequence of recombinant cynomolgus monkey CD3ε/δ heterodimer (cynomolgus monkey) (Q95LI8 22-105, stated change not applied, chain 2 of 2, further chain): as the sequence (P04234 22-105, stated change not applied, chain 2 of 2, further chain) above, with I5V, N15K, I20V, S32T, D33N, I34N, T64A, S74N, V83L counted along it
Absorbance (450 nm) [1],Absorbance (450 nm) [2],Binder
0.072,0.109,"G05 (antibody, human IgG1, lambda, L234A L235A, V domains shown) VH: EVQLVESGGGLVQPGGSLKLSCAASGFTFNTYAMNWVRQASGKGLEWVARIRSKYNNYATYYADSVKDRFTISRDDSQSTAYLQMNSLKTEDTAVYYCVRHGNFGNSYVSWFAYWGQGTLVTVSS VL: QAVVTQEPSLTVSPGGTVTLTCRSSTGAVTTSNYANWFQQKPGQAPRGLIYGTNKRAPWTPARFSGSLLGGKAALTLSGAQPEDEAEYYCALWYSNLWVFGGGTKLTVLG"
0.078,0.118,"G06 (antibody, human IgG1, lambda, L234A L235A, V domains shown) VH: EVQLVESGGGLVQPGGSLKLSCAASGFTFNTYAMNWVRQASGKGLEWVARIRSKYNNYATYYADSVKDRFTISRDDSQSTAYLQMNSLKTEDTAVYYCVRHGNFGNSYVSWFAYWGQGTLVTVSS VL: QAVVTQEPSLTVSPGGTVTLTCRSSTGAVTTSNYANWFQQKPGQAPRGLIYGTNKRAPWTPARFSGSLLGDKAALTLSGAQPEDEAEYYCALWYSNLWVFGGGTKLTVLG"
0.08,0.104,"G11 (antibody, human IgG1, lambda, L234A L235A, V domains shown) VH: EVQLVESGGGLVQPGGSLKLSCAASGFTFNTYAMNWVRQASGKGLEWVARIRSKYNNYATYYADSVKDRFTISRDDSQSTAYLQMNSLKTEDTAVYYCVRHGNFGNSYVSWFAYWGQGTLVTVSS VL: QAVVTQEPSLTVSPGGTVTLTCRSSTGAVTTSNYANWVQQKPGQAPRTLIGGTNKRAPWTPARFSGSLLGGKAALTLSGAQPEDEAEYYCALWYSNLWVFGGGTKLTVLG"
0.079,0.106,"G09 (antibody, human IgG1, lambda, L234A L235A, V domains shown) VH: EVQLVESGGGLVQPGGSLKLSCAASGFTFNTYAMNWVRQASGKGLEWVARIRSKYNNYATYYADSVKDRFTISRDDSQSTAYLQMNSLKTEDTAVYYCVRHGNFGNSYVSWFAYWGQGTLVTVSS VL: QAVVTQEPSLTVSPGGTVTLTCRSSTGAVTTSNYANWVQQKPGQAPRTLIYGTNKRAPWTPARFSGSLLGGKAALTLSGAQPEDEAEYYCALWYSNLWVFGGGTKLTVLG"
0.316,0.118,"G07 (antibody, human IgG1, lambda, L234A L235A, V domains shown) VH: EVQLVESGGGLVQPGGSLKLSCAASGFTFNTYAMNWVRQASGKGLEWVARIRSKYNNYATYYADSVKDRFTISRDDSQSTAYLQMNSLKTEDTAVYYCVRHGNFGNSYVSWFAYWGQGTLVTVSS VL: QAVVTQEPSLTVSPGGTVTLTCRSSTGAVTTSNYANWFQQKPGQAPRGLIGGTNKRAPWTPARFSGSLLGGKAALTLSGAQPEDEAEYYCALWYSNLWVFGGGTKLTVLG"
0.079,0.099,"G10 (antibody, human IgG1, lambda, L234A L235A, V domains shown) VH: EVQLVESGGGLVQPGGSLKLSCAASGFTFNTYAMNWVRQASGKGLEWVARIRSKYNNYATYYADSVKDRFTISRDDSQSTAYLQMNSLKTEDTAVYYCVRHGNFGNSYVSWFAYWGQGTLVTVSS VL: QAVVTQEPSLTVSPGGTVTLTCRSSTGAVTTSNYANWVQQKPGQAPRTLIYGTNKRAPWTPARFSGSLLGDKAALTLSGAQPEDEAEYYCALWYSNLWVFGGGTKLTVLG"
0.08,0.111,"H02 (antibody, human IgG1, lambda, L234A L235A, V domains shown) VH: EVQLVESGGGLVQPGGSLKLSCAASGFTFNTYAMNWVRQASGKGLEWVARIRSKYNNYATYYADSVKDRFTISRDDSQSTLYLQMNSLKTEDTAVYYCVRHGNFGNSYVSWFAYWGQGTLVTVSS VL: QAVVTQEPSLTVSPGGTVTLTCRSSTGAVTTSNYANWFQQKPGQAPRTLIYGTNKRAPWTPARFSGSLLGDKAALTLSGAQPEDEAEYYCALWYSNLWVFGGGTKLTVLG"
0.099,0.105,"G14 (antibody, human IgG1, lambda, L234A L235A, V domains shown) VH: EVQLVESGGGLVQPGGSLKLSCAASGFTFNTYAMNWVRQASGKGLEWVARIRSKYNNYATYYADSVKDRFTISRDDSQSTAYLQMNSLKTEDTAVYYCVRHGNFGNSYVSWFAYWGQGTLVTVSS VL: QAVVTQEPSLTVSPGGTVTLTCRSSTGAVTTSNYANWVQQKPGQAPRGLIYGTNKRAPWTPARFSGSLLGDKAALTLSGAQPEDEAEYYCALWYSNLWVFGGGTKLTVLG"
0.065,0.085,"G12 (antibody, human IgG1, lambda, L234A L235A, V domains shown) VH: EVQLVESGGGLVQPGGSLKLSCAASGFTFNTYAMNWVRQASGKGLEWVARIRSKYNNYATYYADSVKDRFTISRDDSQSTAYLQMNSLKTEDTAVYYCVRHGNFGNSYVSWFAYWGQGTLVTVSS VL: QAVVTQEPSLTVSPGGTVTLTCRSSTGAVTTSNYANWVQQKPGQAPRTLIGGTNKRAPWTPARFSGSLLGDKAALTLSGAQPEDEAEYYCALWYSNLWVFGGGTKLTVLG"
0.085,0.113,"H03 (antibody, human IgG1, lambda, L234A L235A, V domains shown) VH: EVQLVESGGGLVQPGGSLKLSCAASGFTFNTYAMNWVRQASGKGLEWVARIRSKYNNYATYYADSVKDRFTISRDDSQSTLYLQMNSLKTEDTAVYYCVRHGNFGNSYVSWFAYWGQGTLVTVSS VL: QAVVTQEPSLTVSPGGTVTLTCRSSTGAVTTSNYANWFQQKPGQAPRTLIGGTNKRAPWTPARFSGSLLGGKAALTLSGAQPEDEAEYYCALWYSNLWVFGGGTKLTVLG"
0.242,0.265,"G13 (antibody, human IgG1, lambda, L234A L235A, V domains shown) VH: EVQLVESGGGLVQPGGSLKLSCAASGFTFNTYAMNWVRQASGKGLEWVARIRSKYNNYATYYADSVKDRFTISRDDSQSTAYLQMNSLKTEDTAVYYCVRHGNFGNSYVSWFAYWGQGTLVTVSS VL: QAVVTQEPSLTVSPGGTVTLTCRSSTGAVTTSNYANWVQQKPGQAPRGLIYGTNKRAPWTPARFSGSLLGGKAALTLSGAQPEDEAEYYCALWYSNLWVFGGGTKLTVLG"
0.105,0.122,"A11 (antibody, human IgG1, lambda, L234A L235A, V domains shown) VH: EVQLVESGGGLVQPGGSLKLSCAASGFTFNTYAMNWVRQASGKGLEWVGRIRSKYNNYATYYADSVKDRFTISRDDSKNTAYLQMNSLKTEDTAVYYCVRHGNFGNSYVSWFAYWGQGTLVTVSS VL: QAVVTQEPSLTVSPGGTVTLTCRSSTGAVTTSNYANWVQQKPGQAPRTLIGGTNKRAPWTPARFSGSLLGGKAALTLSGAQPEDEAEYYCALWYSNLWVFGGGTKLTVLG"
0.154,0.121,"H01 (antibody, human IgG1, lambda, L234A L235A, V domains shown) VH: EVQLVESGGGLVQPGGSLKLSCAASGFTFNTYAMNWVRQASGKGLEWVARIRSKYNNYATYYADSVKDRFTISRDDSQSTLYLQMNSLKTEDTAVYYCVRHGNFGNSYVSWFAYWGQGTLVTVSS VL: QAVVTQEPSLTVSPGGTVTLTCRSSTGAVTTSNYANWFQQKPGQAPRTLIYGTNKRAPWTPARFSGSLLGGKAALTLSGAQPEDEAEYYCALWYSNLWVFGGGTKLTVLG"
0.119,0.137,"G08 (antibody, human IgG1, lambda, L234A L235A, V domains shown) VH: EVQLVESGGGLVQPGGSLKLSCAASGFTFNTYAMNWVRQASGKGLEWVARIRSKYNNYATYYADSVKDRFTISRDDSQSTAYLQMNSLKTEDTAVYYCVRHGNFGNSYVSWFAYWGQGTLVTVSS VL: QAVVTQEPSLTVSPGGTVTLTCRSSTGAVTTSNYANWFQQKPGQAPRGLIGGTNKRAPWTPARFSGSLLGDKAALTLSGAQPEDEAEYYCALWYSNLWVFGGGTKLTVLG"
